PMC9482650, “Quantitative fragmentomics allow affinity mapping of interactomes” (Nature Communications, 2022)

What was measured:
Assay in all cases: holdup assay
Design in all cases: key: below the threshold = too weak to quantify, mostly under pKd 3.1 to 4
RAPGEF6, Q8TEU7 = biological target: T1, RAPGEF6, Q8TEU7
T1 sequence (Q8TEU7 525-625, limits assumed, looked up): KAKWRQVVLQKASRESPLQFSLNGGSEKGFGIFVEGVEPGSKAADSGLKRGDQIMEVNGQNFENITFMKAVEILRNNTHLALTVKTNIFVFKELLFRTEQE

DLG2_3, Q15700 = biological target: DLG2_3, Q15700
DLG4_3, P78352 = biological target: DLG4_3, P78352
DLG4_3, P78352, sequence (P78352 306-403): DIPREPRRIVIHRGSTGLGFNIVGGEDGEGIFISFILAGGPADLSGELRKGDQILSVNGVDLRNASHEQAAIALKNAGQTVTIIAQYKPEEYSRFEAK

DLG1_3, Q12959 = biological target: DLG1_3, Q12959
DLG1_3, Q12959, sequence (Q12959 457-571): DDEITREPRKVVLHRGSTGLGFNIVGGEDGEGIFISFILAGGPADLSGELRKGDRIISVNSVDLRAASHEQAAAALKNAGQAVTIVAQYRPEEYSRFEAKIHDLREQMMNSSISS

GIPC2, Q8TF65 = biological target: GIPC2, Q8TF65
GIPC2, Q8TF65, sequence (Q8TF65 112-203): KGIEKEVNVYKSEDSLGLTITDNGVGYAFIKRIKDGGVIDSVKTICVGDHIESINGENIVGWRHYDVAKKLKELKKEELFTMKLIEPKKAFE

GRIP2_3, Q9C0E4 = biological target: GRIP2_3, Q9C0E4
GRIP2_3, Q9C0E4, sequence (Q9C0E4 238-339): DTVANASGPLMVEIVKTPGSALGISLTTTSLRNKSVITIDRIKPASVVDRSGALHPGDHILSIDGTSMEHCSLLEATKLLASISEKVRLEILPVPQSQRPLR

MPDZ_5, O75970 = biological target: T2, MPDZ_5, O75970
T2 sequence (O75970 695-796, limits assumed, looked up): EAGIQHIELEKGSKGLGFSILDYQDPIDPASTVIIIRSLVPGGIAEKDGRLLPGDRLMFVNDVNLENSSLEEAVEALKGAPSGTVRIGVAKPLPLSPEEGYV

PARD3B_1, Q8TEW8 = biological target: T3, PARD3B_1, Q8TEW8
T3 sequence (Q8TEW8 196-299, limits assumed, looked up): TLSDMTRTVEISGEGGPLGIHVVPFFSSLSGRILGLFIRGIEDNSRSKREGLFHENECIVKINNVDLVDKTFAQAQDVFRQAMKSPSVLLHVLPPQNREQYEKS

LRRC7, Q96NW7 = biological target: T4, LRRC7, Q96NW7
T4 sequence (Q96NW7 1440-1537, limits assumed, looked up): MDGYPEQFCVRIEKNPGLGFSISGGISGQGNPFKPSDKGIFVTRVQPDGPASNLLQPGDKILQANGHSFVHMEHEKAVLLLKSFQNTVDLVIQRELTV

LIN7A, O14910 = biological target: T5, LIN7A, O14910
T5 sequence (O14910 103-200, limits assumed, looked up): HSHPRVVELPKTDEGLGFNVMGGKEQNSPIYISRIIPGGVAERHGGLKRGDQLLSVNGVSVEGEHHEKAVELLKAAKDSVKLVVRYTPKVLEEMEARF

PTPN13_1, Q12923 = biological target: T6, PTPN13_1, Q12923
T6 sequence (Q12923 1088-1188, limits assumed, looked up): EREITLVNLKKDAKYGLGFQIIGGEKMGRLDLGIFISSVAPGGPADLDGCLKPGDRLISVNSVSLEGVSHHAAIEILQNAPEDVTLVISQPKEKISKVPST

GRID2IP_1, A4D2P6 = biological target: GRID2IP_1, A4D2P6
GRID2IP_1, A4D2P6, sequence (A4D2P6 1-87): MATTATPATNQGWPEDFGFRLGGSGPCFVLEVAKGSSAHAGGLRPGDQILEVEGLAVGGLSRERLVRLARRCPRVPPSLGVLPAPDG

PCLO, Q9Y6V0 = biological target: T7, PCLO, Q9Y6V0
T7 sequence (Q9Y6V0 4491-4600, limits assumed, looked up): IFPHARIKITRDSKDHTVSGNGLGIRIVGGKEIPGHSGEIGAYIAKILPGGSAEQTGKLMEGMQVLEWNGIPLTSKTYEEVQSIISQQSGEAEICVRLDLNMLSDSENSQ

GOPC, Q9HD26 = biological target: GOPC, Q9HD26
FRMPD2_2, Q68DX3 = biological target: FRMPD2_2, Q68DX3
FRMPD2_2, Q68DX3, sequence (Q68DX3 944-1038): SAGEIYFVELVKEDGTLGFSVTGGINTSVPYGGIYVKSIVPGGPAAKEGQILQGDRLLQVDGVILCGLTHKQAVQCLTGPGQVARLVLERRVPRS

SIPA1L2, Q9P2F8 = biological target: T8, SIPA1L2, Q9P2F8
T8 sequence (Q9P2F8 945-1036, limits assumed, looked up): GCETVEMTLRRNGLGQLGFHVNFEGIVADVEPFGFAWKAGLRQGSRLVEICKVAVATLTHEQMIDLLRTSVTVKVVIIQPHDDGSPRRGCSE

ARHGAP21, Q5T5U3 = biological target: T9, ARHGAP21, Q5T5U3
T9 sequence (Q5T5U3 45-169, limits assumed, looked up): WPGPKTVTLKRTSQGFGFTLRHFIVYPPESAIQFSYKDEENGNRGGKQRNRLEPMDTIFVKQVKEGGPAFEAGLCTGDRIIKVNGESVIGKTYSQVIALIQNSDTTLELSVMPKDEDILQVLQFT

DLG2_2, Q15700 = biological target: DLG2_2, Q15700
Inadl_10, Q8NI35 = biological target: Inadl_10, Q8NI35
Inadl_10, Q8NI35, sequence (Q8NI35 1673-1763): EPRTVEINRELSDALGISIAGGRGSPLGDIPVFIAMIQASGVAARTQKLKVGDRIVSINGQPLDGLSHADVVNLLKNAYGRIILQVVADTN

SYNJ2BP, P57105 = biological target: T10, SYNJ2BP, P57105
T10 sequence (P57105 8-110, limits assumed, looked up): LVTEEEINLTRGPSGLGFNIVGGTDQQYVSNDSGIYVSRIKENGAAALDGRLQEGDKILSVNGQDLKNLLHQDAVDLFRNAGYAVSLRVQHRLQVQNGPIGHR

DLG1_2, Q12959 = biological target: DLG1_2, Q12959
DLG1_2, Q12959, sequence (Q12959 314-412): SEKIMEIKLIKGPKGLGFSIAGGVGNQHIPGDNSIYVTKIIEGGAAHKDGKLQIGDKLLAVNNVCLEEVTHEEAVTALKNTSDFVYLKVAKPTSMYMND

HTRA1, Q92743 = biological target: HTRA1, Q92743
HTRA1, Q92743, sequence (Q92743 360-477): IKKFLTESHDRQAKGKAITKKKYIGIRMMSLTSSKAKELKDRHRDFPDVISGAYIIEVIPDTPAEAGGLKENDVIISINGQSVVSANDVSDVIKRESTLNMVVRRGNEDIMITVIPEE

GRIP2_7, Q9C0E4 = biological target: GRIP2_7, Q9C0E4
GRIP2_7, Q9C0E4, sequence (Q9C0E4 934-1023): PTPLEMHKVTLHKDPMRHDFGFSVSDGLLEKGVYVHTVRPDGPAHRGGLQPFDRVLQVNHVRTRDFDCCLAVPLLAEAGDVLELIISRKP

PDZD7_3, Q9H5P4 = biological target: T11, PDZD7_3, Q9H5P4
T11 sequence (Q9H5P4 857-944, limits assumed, looked up): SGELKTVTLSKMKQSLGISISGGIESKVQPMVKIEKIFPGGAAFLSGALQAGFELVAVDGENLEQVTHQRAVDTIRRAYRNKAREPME

SNTB1, Q13884 = biological target: T12, SNTB1, Q13884
T12 sequence (Q13884 107-205, limits assumed, looked up): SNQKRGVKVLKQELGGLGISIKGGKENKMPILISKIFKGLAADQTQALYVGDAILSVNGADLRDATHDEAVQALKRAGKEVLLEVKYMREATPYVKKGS

[1] = plain residues with an end cap or a label only (N-terminal biotin on a linker: ado-ado)
[2] = plain residues with an end cap or a label only (N-terminal biotin on a linker: ttds)
[3] = plain residues with an end cap or a label only (N-terminal biotin on a linker: gsgsgs; C-terminal amide)

B1: CES2, O00748 (peptide)
chain: EEPEERHTEL
- pKd (RAPGEF6, Q8TEU7; [1]): 3.56
- pKd (DLG2_3, Q15700; [1]): 3.78
- pKd (DLG4_3, P78352; [1]): below the threshold
- pKd (DLG1_3, Q12959; [1]): 3.52
- pKd (GIPC2, Q8TF65; [1]): below the threshold
- pKd (GRIP2_3, Q9C0E4; [1]): below the threshold
- pKd (MPDZ_5, O75970; [1]): below the threshold
- pKd (PARD3B_1, Q8TEW8; [1]): 3.71
- pKd (LRRC7, Q96NW7; [1]): 3.61
- pKd (LIN7A, O14910; [1]): below the threshold
- pKd (PTPN13_1, Q12923; [1]): below the threshold
- pKd (GRID2IP_1, A4D2P6; [1]): below the threshold
- pKd (PCLO, Q9Y6V0; [1]): below the threshold
- pKd (GOPC, Q9HD26; [1]): below the threshold
- pKd (FRMPD2_2, Q68DX3; [1]): below the threshold
- pKd (SIPA1L2, Q9P2F8; [1]): below the threshold
- pKd (ARHGAP21, Q5T5U3; [1]): below the threshold
- pKd (DLG2_2, Q15700; [1]): 3.86
- pKd (Inadl_10, Q8NI35; [1]): below the threshold
- pKd (SYNJ2BP, P57105; [1]): 4.18
- pKd (DLG1_2, Q12959; [1]): 4.13
- pKd (HTRA1, Q92743; [1]): 4.36
- pKd (GRIP2_7, Q9C0E4; [1]): below the threshold
- pKd (PDZD7_3, Q9H5P4; [1]): 4.72
- pKd (SNTB1, Q13884; [1]): 4.92

B2: SLC16A1, P53985 (peptide)
chain: GGPKEEESPV
- pKd (RAPGEF6, Q8TEU7; [2]): below the threshold
- pKd (DLG2_3, Q15700; [2]): below the threshold
- pKd (DLG4_3, P78352; [2]): below the threshold
- pKd (DLG1_3, Q12959; [2]): below the threshold
- pKd (GIPC2, Q8TF65; [2]): below the threshold
- pKd (GRIP2_3, Q9C0E4; [2]): below the threshold
- pKd (MPDZ_5, O75970; [2]): below the threshold
- pKd (PARD3B_1, Q8TEW8; [2]): below the threshold
- pKd (LRRC7, Q96NW7; [2]): below the threshold
- pKd (LIN7A, O14910; [2]): below the threshold
- pKd (PTPN13_1, Q12923; [2]): below the threshold
- pKd (GRID2IP_1, A4D2P6; [2]): below the threshold
- pKd (PCLO, Q9Y6V0; [2]): below the threshold
- pKd (GOPC, Q9HD26; [2]): below the threshold
- pKd (FRMPD2_2, Q68DX3; [2]): 4.01
- pKd (SIPA1L2, Q9P2F8; [2]): below the threshold
- pKd (ARHGAP21, Q5T5U3; [2]): below the threshold
- pKd (DLG2_2, Q15700; [2]): below the threshold
- pKd (Inadl_10, Q8NI35; [2]): below the threshold
- pKd (SYNJ2BP, P57105; [2]): 4.32
- pKd (DLG1_2, Q12959; [2]): 3.56
- pKd (HTRA1, Q92743; [2]): below the threshold
- pKd (GRIP2_7, Q9C0E4; [2]): below the threshold
- pKd (PDZD7_3, Q9H5P4; [2]): below the threshold
- pKd (SNTB1, Q13884; [2]): below the threshold

B3: ARAP3_int, Q8WWN8 (peptide)
chain: ELIQDTSTSFSTTREW
- pKd (RAPGEF6, Q8TEU7; [3]): below the threshold
- pKd (DLG2_3, Q15700; [3]): 3.69
- pKd (DLG4_3, P78352; [3]): below the threshold
- pKd (DLG1_3, Q12959; [3]): below the threshold
- pKd (GIPC2, Q8TF65; [3]): below the threshold
- pKd (GRIP2_3, Q9C0E4; [3]): below the threshold
- pKd (MPDZ_5, O75970; [3]): below the threshold
- pKd (PARD3B_1, Q8TEW8; [3]): below the threshold
- pKd (LRRC7, Q96NW7; [3]): below the threshold
- pKd (LIN7A, O14910; [3]): below the threshold
- pKd (PTPN13_1, Q12923; [3]): below the threshold
- pKd (GRID2IP_1, A4D2P6; [3]): below the threshold
- pKd (PCLO, Q9Y6V0; [3]): below the threshold
- pKd (GOPC, Q9HD26; [3]): below the threshold
- pKd (FRMPD2_2, Q68DX3; [3]): below the threshold
- pKd (SIPA1L2, Q9P2F8; [3]): below the threshold
- pKd (ARHGAP21, Q5T5U3; [3]): below the threshold
- pKd (DLG2_2, Q15700; [3]): below the threshold
- pKd (Inadl_10, Q8NI35; [3]): below the threshold
- pKd (SYNJ2BP, P57105; [3]): below the threshold
- pKd (DLG1_2, Q12959; [3]): below the threshold
- pKd (HTRA1, Q92743; [3]): below the threshold
- pKd (GRIP2_7, Q9C0E4; [3]): below the threshold
- pKd (PDZD7_3, Q9H5P4; [3]): below the threshold
- pKd (SNTB1, Q13884; [3]): below the threshold

B4: EPHA7, Q15375 (peptide)
chain: LHLHGTGIQV
- pKd (RAPGEF6, Q8TEU7; [1]): below the threshold
- pKd (DLG2_3, Q15700; [1]): below the threshold
- pKd (DLG4_3, P78352; [1]): below the threshold
- pKd (DLG1_3, Q12959; [1]): 3.69
- pKd (GIPC2, Q8TF65; [1]): below the threshold
- pKd (GRIP2_3, Q9C0E4; [1]): below the threshold
- pKd (MPDZ_5, O75970; [1]): 4.1
- pKd (PARD3B_1, Q8TEW8; [1]): 3.72
- pKd (LRRC7, Q96NW7; [1]): below the threshold
- pKd (LIN7A, O14910; [1]): below the threshold
- pKd (PTPN13_1, Q12923; [1]): below the threshold
- pKd (GRID2IP_1, A4D2P6; [1]): below the threshold
- pKd (PCLO, Q9Y6V0; [1]): below the threshold
- pKd (GOPC, Q9HD26; [1]): below the threshold
- pKd (FRMPD2_2, Q68DX3; [1]): below the threshold
- pKd (SIPA1L2, Q9P2F8; [1]): below the threshold
- pKd (ARHGAP21, Q5T5U3; [1]): 3.73
- pKd (DLG2_2, Q15700; [1]): below the threshold
- pKd (Inadl_10, Q8NI35; [1]): below the threshold
- pKd (SYNJ2BP, P57105; [1]): 3.7
- pKd (DLG1_2, Q12959; [1]): 3.6
- pKd (HTRA1, Q92743; [1]): 4.36
- pKd (GRIP2_7, Q9C0E4; [1]): 3.82
- pKd (PDZD7_3, Q9H5P4; [1]): below the threshold
- pKd (SNTB1, Q13884; [1]): below the threshold
